The text below walks through data of patent US20220396632A1 (VERSEAU THERAPEUTICS, published 2022).

The target in experiment [1] is T1, Biotin Y46,48,51(SO3) PSGL-1(42-62) peptide (human, sulfotyrosine at Y46, Y48 and Y51; C-terminal Lys-biotin).
T1 construct: also called fully sulfated N-terminal PSGL-1 peptide
T1 peptide: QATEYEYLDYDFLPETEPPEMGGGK
Briefly: capture ELISA; against 3 x sY peptide. As to the method: (§1) Two ELISA methods were performed. One procedure detected mAb binding to its plate-immobilized target and the other measured the immobilized antibody's ability to capture biotinylated PSGL-1₄₂₋₆₂. […] The plate was incubated for 45 min at 37° C. Plates were washed 3 times with wash buffer (PBS containing 0.05% tween 20, pH 7.4) and a single concentration (2 to 500 nM) or serially diluted (0.002-100 nM) anti-PSGL-1 mAb was added (25 ul/well) in assay buffer into appropriate wells. The plate was incubated for 45 min at 37° C., washed 3 times, and an appropriate HRP-conjugated secondary antibody added (25 ul/well) (HRP goat anti-mouse or anti-human IgG). After 45 min incubation at 37° C., the plate was washed, and antibody bound to plate-immobilized target was determined at A450 nm using HRP substrate (3,3′,5,5′-etramethylbenzidine (TMB)). For each antibody, duplicate values were averaged and assay background was subtracted. Except for the following, ELISAs involving plate-immobilized mAb capturing of biotinylated PSGL-1₄₂₋₆₂ peptides was performed in the same manner as described above: 3 ug/mL/25 ul per well of mAb was coated directly onto microtiter plate wells; biotinylated unmodified or sulfotyrosine PSGL-1₄₂₋₆₂ was serially diluted (3 nM-3 uM) into appropriate wells, and antibody-bound peptide was detected using HRP-streptavidin (Jackson Immunoresearch, Cat. #016-030-084).
Background: ELISA stands for enzyme-linked immunosorbent assay.

Experiment [2] deals with T2, Biotin sY48 PSGL-1(42-62) peptide (human, sulfotyrosine at Y48; C-terminal Lys-biotin).
T2 construct: also called sY48S
T2 peptide: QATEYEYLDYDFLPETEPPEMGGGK
Briefly: capture ELISA; against 3 x sY peptide. As to the method: as §1

Experiment [3] has as its target T3, Biotin sY51 PSGL-1(42-62) peptide (human, sulfotyrosine at Y51; C-terminal Lys-biotin).
T3 construct: also called Y51(SO3) PSGL-1(42-62)
T3 peptide: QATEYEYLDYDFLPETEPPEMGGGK
The experiment is described as follows: capture ELISA; against 3 x sY peptide. As to the method:
as §1

The target of experiment [4] is T1, Biotin Y46,48,51(SO3) PSGL-1(42-62) …. The experiment is described as follows: ELISA, plate-bound mAb captures biotin peptide. As to the method:
as §1

Experiment [5] has as its target T2, Biotin sY48 PSGL-1(42-62) peptide. Briefly: ELISA, plate-bound mAb captures biotin peptide. As to the method: as §1
Experiment [6] has as its target T3, Biotin sY51 PSGL-1(42-62) peptide. The experiment is described as follows: ELISA, plate-bound mAb captures biotin peptide. As to the method:
as §1

The target of experiment [7] is T1, Biotin Y46,48,51(SO3) PSGL-1(42-62) …. Briefly: ELISA, plate-bound target. As to the method:
as §1

Experiment [8] addresses T4, Recombinant human PSGL-1(ECD)-hFc1 (R&D Systems, Cat. 3345-PS) (human, UniProt Q14242 42-305).
T4 construct: Bought; Gln42-Val295 counted on AAC50061; also called PSGL-1-Fc; PSGL-1-hFc1 chimera; not shown: human IgG1 Fc, Pro100-Lys330
T4 sequence: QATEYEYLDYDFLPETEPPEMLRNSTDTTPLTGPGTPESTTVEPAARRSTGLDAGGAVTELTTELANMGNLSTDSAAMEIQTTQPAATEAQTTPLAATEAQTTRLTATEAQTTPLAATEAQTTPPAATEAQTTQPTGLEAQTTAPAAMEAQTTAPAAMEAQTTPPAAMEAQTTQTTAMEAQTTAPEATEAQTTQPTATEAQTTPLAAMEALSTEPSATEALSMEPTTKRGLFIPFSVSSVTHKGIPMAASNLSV
Briefly: ELISA, plate-bound target. As to the method: as §1

Experiment [9] concerns the target T1, Biotin Y46,48,51(SO3) PSGL-1(42-62) …. The experiment is described as follows: capture ELISA; against parent 18F02. As to the method: (§2) A typical ELISA for N-terminal PSGL-1 reactive humanized mAbs binding to Y_{46,48,51}(SO₃) PSGL-1₍₄₂₋₆₂₎ involved coating high binding half-well plates (Corning Cat. #3690) with 3 ug/mL/25 ul per well of the mAbs or with an isotype hG4 control in PBS, pH 7.4, overnight at 4° C. […] Biotinylated Y_{46,48,51}(SO₃) PSGL-1₍₄₂₋₆₂₎ was added (25 ul per well) in duplicate at 2.8 uM in assay buffer (blocking buffer containing 0.05% tween 20) and serially diluted into test and control (just blocked) wells, and the plate incubated for 45 min at 37° C. The plate was washed ×3 and an appropriate HRP-conjugated streptavidin was added (25 ul per well; Jackson Immunoresearch, Cat. #016-030-084) and the plate was incubated for 45 min at 37° C. […] For each antibody, an EC50 value was determined from sigmoidal fitted peptide titration curve.

Experiment [10] shares this target. Briefly: ELISA, plate-bound mAb captures biotin 3 x sY peptide. As to the method:
as §2

Experiment [11] addresses T5, PSGL-1(42-62) N-terminal peptide, sulfation state not told at the place (human, not fully specified; sulfation of Y46, Y48, Y51 not stated for these table columns).
T5 peptide: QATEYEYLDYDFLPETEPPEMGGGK
The experiment is described as follows: mAb binding to PSGL-1(42-62).

The target of experiment [12] is T6, Cynomolgus PSGL-1(ECD)-HIS (cynomolgus macaque).
T6 construct: also called Cyno PSGL1-His
T6 chain: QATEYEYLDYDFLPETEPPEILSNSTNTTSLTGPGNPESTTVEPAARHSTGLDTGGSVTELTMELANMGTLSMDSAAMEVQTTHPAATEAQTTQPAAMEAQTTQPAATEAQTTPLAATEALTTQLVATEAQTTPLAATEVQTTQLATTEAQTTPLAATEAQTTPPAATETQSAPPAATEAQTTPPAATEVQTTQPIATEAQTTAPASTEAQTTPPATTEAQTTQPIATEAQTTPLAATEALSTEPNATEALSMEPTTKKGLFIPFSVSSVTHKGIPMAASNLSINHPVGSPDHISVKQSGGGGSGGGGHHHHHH
The experiment is described as follows: ELISA, plate cyno PSGL-1(ECD)-HIS. As to the method: Antibody binding to plate-immobilized cyno PSGL-1(ECD) was determined either at one concentration (20 nM) or by generating full antibody binding curves (0.003-200 nM). A typical ELISA was performed by overnight coating at 4° C. with 3 ug/mL/25 ul per well of recombinant cyno PSGL-1(ECD) protein in PBS, pH 7.4, in high binding half-well plates (Corning Cat. #3690). […] Anti-PSGL-1 IgG in assay buffer (blocking buffer containing 0.05% tween 20) was added into test and control wells (20 nM/25 ul/well) and the plate incubated for 45 min at 37° C. […] The plate was incubated for 45 min at 37° C., and mAb bound to plate-immobilized target determined at A450 nm using HRP substrate (3,3′,5,5′-tetramethylbenzidine (TMB)). For each antibody, duplicate values were averaged and assay background subtracted.

For experiment [13], the target named is T7, Biotin sY46 PSGL-1(42-62) peptide (human, sulfotyrosine at Y46; C-terminal Lys-biotin).
T7 peptide: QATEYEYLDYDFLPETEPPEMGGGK
The experiment is described as follows: ELISA, plate-bound mAb captures biotin peptide. As to the method:
as §1

B1: PSG3 (antibody, V domains shown)
VH: QVQLVQSGAEVKKPGSSVRVSCKASGGSFSSYGIHWVQQAPGQGLEWMGRIIPVLRIRNYAQKFHDRVTIDADTSTGTAYMELSSLTSDDTAVYYCAGSRQGVAPTGYWGQGTMVTVSS
VL: QAVLTQPSSLSASPGASASLTCNLRSGIDVGTYRIYWYQQKPGSPPQYLLRYKSDSDKQQGSGVPSRFSGTKDASANAGILLISGLQSEDEADYYCMIWHSNGWVFGGGTKLTVL
notes: Control anti-PSGL-1 mAb; only variable domains given
As usually defined, the EC50 is the concentration giving half of the maximal effect. Regarding B1, the figures for the “EC50/EC50 3x(SO3)Y” value in experiment [1], in experiment [2] and in experiment [3] were 1 fold, about 6 fold and about 6 fold, respectively. Besides, the concentration giving a half-maximal response (EC50) in [4] was 93 nM; in experiment [5], about 600 nM; in experiment [6] it was about 600 nM; in experiment [7] it was 0.44 nM; in experiment [8], about 0.1 nM.

B2: 18F02.001 (antibody, IgG4, V domains shown)
VH: QVQLVQSGAEVKKPGSSVKVSCKASGYTFTSYWMHWVRQAPGQGLEWMGMIHPNSGRTNYNEKFKSRVTITVDKSTSTAYMELSSLRSEDTAVYYCARSDYWGQGTLVTVSS
VL: DIVMTQTPLSLSVTPGQPASISCRSSKSLLHSDGITYLYWFLQKPGQSPQLLIYRMSNLASGVPDRFSGSGSGTDFTLKISRVEAEDVGVYYCAQMLEFPRTFGQGTKLEIK
notes: Humanised
Take B2: the “N-term peptide EC50 (normalized)” value in [9] is 2.3 fold. Further, the half-maximal effective concentration (EC50) in experiment [10] was determined as 160 nM.

B3: 18F02.002 (antibody, IgG4, V domains shown)
VH: EVQLVQSGAEVKKPGSSVKVSCKASGYTFTSYWMHWVRQAPGQGLEWMGMIHPNSGRTNYNEKFKSRVTITVDKSTSTAYMELSSLRSEDTAVYYCARSDYWGQGTLVTVSS
VL: DIVMTQTPLSLSVTPGQPASISCRSSKSLLHSDGITYLYWFLQKPGQSPQLLIYRMSNLASGVPDRFSGSGSGTDFTLKISRVEAEDVGVYYCAQMLEFPRTFGQGTKLEIK
notes: Humanised
Turning to B3, the “N-term peptide EC50 (normalized)” value in experiment [9] is 2.1 fold. Also, the concentration giving a half-maximal response (EC50) in experiment [10] was 150 nM.

B4: 20H10 (antibody, V domains shown)
VH: QVQLQQPGTELVKPGASVKLSCKASGYTFTNFWMHWVRQRPGQGLEWIGKINPGNGGTRYNEKFKTKATLTVDRSSSTACIQLSSLTSEDSAVYYCTSTNWDPYFDYWGQGTTLTVSS
VL: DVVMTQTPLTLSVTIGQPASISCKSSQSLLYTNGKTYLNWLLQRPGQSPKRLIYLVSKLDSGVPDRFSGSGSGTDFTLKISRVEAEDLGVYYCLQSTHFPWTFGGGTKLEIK
notes: Mouse hybridoma mAb; only variable domains given
For the molecule B4, the binding result in [11] and in experiment [12] was “no binding” each time.

B5: SELK1 (antibody, V domains shown)
VH: QVQLQQSGPGLVKPSQTLSLTCAISGDSVSSNIAAWHWIRLSPSRGLEWLGRTYYRRSKWNYDYALSVKSRININPDTSKNLFSLQLNSVTPEDTAVYYCTRGGGRAHSAWGQGTLVTVSS
VL: EIVLTQSPGTLSVSPGERATLSCRASQSVSRSHLAWYQQKPGQAPRLLIFGASSRATGIPDRFSGSGSGTDFTLTISRLEPEDFAVYYCQQYGRPGVTFGQGTKVEIK
notes: as for B1
On to B5, for which the EC50 in experiment [4] turned out to be 6.2 nM; in experiment [5] it was 8.34 nM; in experiment [6], 129 nM; in [13] it was 167 nM; in experiment [7], 0.07 nM; in experiment [8] it was 0.02 nM.
